Laboratory results published in publication PMC9513256.
Primed or numbered codes have the meaning given here. Where no end group is shown, it is not given here. PEG2′ = not defined here

Target: Hedgehog acyltransferase (Hhat), triple tagged (HA-FLAG-His) WT (UniProt Q5VTY9)
Chain of UniProt Q5VTY9 (Q5VTY9 whole entry): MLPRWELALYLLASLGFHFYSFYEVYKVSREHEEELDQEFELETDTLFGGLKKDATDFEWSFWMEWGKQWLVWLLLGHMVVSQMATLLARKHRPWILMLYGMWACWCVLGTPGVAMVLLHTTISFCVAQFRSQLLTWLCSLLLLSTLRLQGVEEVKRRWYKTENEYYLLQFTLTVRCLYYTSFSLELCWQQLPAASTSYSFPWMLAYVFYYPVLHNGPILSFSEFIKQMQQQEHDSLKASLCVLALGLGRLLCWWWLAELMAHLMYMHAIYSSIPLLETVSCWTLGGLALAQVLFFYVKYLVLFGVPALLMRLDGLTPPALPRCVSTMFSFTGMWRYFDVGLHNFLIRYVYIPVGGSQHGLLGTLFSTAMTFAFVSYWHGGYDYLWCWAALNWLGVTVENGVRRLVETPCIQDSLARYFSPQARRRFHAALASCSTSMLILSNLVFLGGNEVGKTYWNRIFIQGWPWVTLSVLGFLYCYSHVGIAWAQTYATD

apparent Km for Shh peptide, Hhat-mediated NBD-fatty acylation of Shh peptide (initial rates, 10 min, 37 °C), Shh titrated in the presence of 25 μM NBD-myristoyl-CoA (14:0): 10.7 μM Shh
apparent Km for Shh peptide, Hhat-mediated NBD-fatty acylation of Shh peptide (initial rates, 10 min, 37 °C), Shh titrated in the presence of 25 μM NBD-oleoyl-CoA (18:1): 19.7 μM Shh
apparent Km for Shh peptide, Hhat-mediated NBD-fatty acylation of Shh peptide (initial rates, 10 min, 37 °C), Shh titrated in the presence of 25 μM NBD-palmitoleoyl-CoA (16:1): 5 μM Shh
apparent Km for Shh peptide, Hhat-mediated NBD-fatty acylation of Shh peptide (initial rates, 10 min, 37 °C), Shh titrated in the presence of 25 μM NBD-palmitoyl-CoA (16:0): 10.4 μM Shh
B1: biotinylated WT Shh peptide, …-(PEG2)-K(Biotin)-NH2 (peptide)
peptide: CGPGRGFGKR-{PEG2′-K(Biotin)-NH2}
